Values joined by “and” are separate entries in the source; they are usually repeats but may differ in a detail not shown here. Equal entries are not always repeated.
T1: Rhesus D antigen on RhD-positive human red blood cells (human, UniProt Q02161 2-417)
T1 sequence (looked up): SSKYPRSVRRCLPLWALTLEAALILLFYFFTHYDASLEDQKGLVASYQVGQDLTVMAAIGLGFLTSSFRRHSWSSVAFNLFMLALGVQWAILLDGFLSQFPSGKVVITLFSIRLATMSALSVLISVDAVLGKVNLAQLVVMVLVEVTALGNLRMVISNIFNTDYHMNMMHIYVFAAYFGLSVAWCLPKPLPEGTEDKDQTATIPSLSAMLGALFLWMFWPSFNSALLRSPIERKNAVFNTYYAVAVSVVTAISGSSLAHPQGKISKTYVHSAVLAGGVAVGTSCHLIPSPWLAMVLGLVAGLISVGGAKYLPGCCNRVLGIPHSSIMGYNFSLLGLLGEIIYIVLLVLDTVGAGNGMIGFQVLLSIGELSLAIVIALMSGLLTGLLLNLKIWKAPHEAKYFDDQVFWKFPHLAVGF

B1: anti-RhD monoclonal antibody RhD3 (antibody, human IgG3, kappa, V domains shown)
VH: QVTLKESGPVLVKPTETLTLTCTVSGFSLNNARMGVSWIRQPPGKALEWLAHIFSNDEKSYSTSLKSRLTISKDTSKSQVFLTMTNMDPVDTATYYCARTPITMVRGAIRLYYYYYMDVWGKGTTVTVSS
VL: DIQVTQSPSSLSASVGDRVTINCRASQSIGTYLNWYQQKPGKAPNLLIYAASSLQSGVPSRFSGSGSGTDFTLTISSLQPEDFATYYCQQTYSTPTWTFGRGTKVEIKR
B2: anti-RhD monoclonal antibody RhD1 (antibody, human IgG1, lambda)
heavy: not shown
light: QSALTQPASVSGSPGQSITISCSGSSSDVGGYKYVSWYQQHPGKAPQLMIYDVNNRPSGVSNRFSGSKSGNTASLTISGLQAEDEADYYCSSYTSSSTRVFGGGTKLTVLGQPKAAPSVTLFPPSSEELQANKATLVCLISDFYPGAVTVAWKADSSPVKAGVETTTPSKQSNNKYAASSYLSLTPEQWKSHKSYSCQVTHEGSTVEKTVAPTECS
B3: RhD4 (IgG3 variant of RhD1: RhD1V3C heavy chain and RhD1 light chain) (antibody)
heavy: QVQLVQSGAEVKKPGSSVKVSCKASGGIFRTYAISWVRQAPGQGLEWMGGIIPMFGTVNYAQKFQGRVTISADKSTSTAYMELSRLRSEDTAVYYCARPPSGGCGGDCSRRGYYYAMDVWGQGTTITVSSASTKGPSVFPLAPCSRSTSGGTAALGCLVKDYFPEPVTVSWNSGALTSGVHTFPAVLQSSGLYSLSSVVTVPSSSLGTQTYTCNVNHKPSNTKVDKRVELKTPLGDTTHTCPRCPEPKSCDTPPPCPRCPEPKSCDTPPPCPRCPEPKSCDTPPPCPRCPAPELLGGPSVFLFPPKPKDTLMISRTPEVTCVVVDVSHEDPEVQFKWYVDGVEVHNAKTKPREEQFNSTFRVVSVLTVLHQDWLNGKEYKCKVSNKALPAPIEKTISKTKGQPREPQVYTLPPSREEMTKNQVSLTCLVKGFYPSDIAVEWESSGQPENNYNTTPPMLDSDGSFFLYSKLTVDKSRWQQGNIFSCSVMHEALHNRFTQKSLSLSPGK
light: B2 light
notes: IgG3, lambda chimera; The limits were converted from the nucleotide limits: variable region nt 58-448, constant region from nt 449; The NheI site was made by silent mutations only

Legend:
[1] = molecular target: T1, Rhesus D antigen on RhD-positive human …; assay: cell-based or functional assay
[2] = molecular target: T1, Rhesus D antigen on RhD-positive human …; assay: hemagglutination of bromelain-treated RhD-positive erythrocytes, Technicon Autoanalyzer, against the NIBSC polyclonal standard
Experimental: Briefly, bromelain-treated RhD positive red cells are incubated with various concentrations of anti-RhD antibodies. The cells are allowed to agglutinate over a period of time. The agglutinated cells are removed in the autoanalyzer and the rest of the erythrocytes are lysed using detergent. The optical density of the released hemoglobin is measured spectrophotometrically. The anti-D concentrations of the samples are calculated using a standard graph obtained from various concentrations of the Anti-D standard.

ADCC EC50 (ng of Active Ab/ml), Average [1]	ADCC EC50 (ng of Active Ab/ml), Experiment 1 [1]	ADCC EC50 (ng of Active Ab/ml), Experiment 2 [1]	Agglutination Titer (µg of Active Ab per mg of Protein) [2]	Binder
0.3 ng of Active Ab/ml and 0.2 ng of Active Ab/ml	0.2 ng of Active Ab/ml and 0.1 ng of Active Ab/ml	0.3 ng of Active Ab/ml and 0.2 ng of Active Ab/ml		B1
1.1 ng of Active Ab/ml and 0.7 ng of Active Ab/ml	0.7 ng of Active Ab/ml and 0.4 ng of Active Ab/ml	1.5 ng of Active Ab/ml and 0.9 ng of Active Ab/ml		B2
0.3 ng of Active Ab/ml	0.1 ng of Active Ab/ml	0.5 ng of Active Ab/ml	303 µg of Active Ab per mg of Protein	B3

From US20120027769A1 (BHARAT SERUMS AND VACCINES, published 2012)
